Broadly, the EC50 is the concentration at which the effect is half-maximal. High values mean a less potent agent, low ones a more potent agent.

Where two headings read alike, the source gives them in different places. Where no end group is shown, it is not given here. Bounds are passed on as bounds.

Results on eleven molecules are retold here after patent publication US20230357429A1 (JANUX THERAPEUTICS, published 2023).

Assay [1] concerns the target T1, Human TROP2 ECD (31-274 AA), biotinylated (human, UniProt P09758 31-274, biotinylated (site not stated)).
T1 construct: also called tumor-associated calcium signal transducer 2; Human TROP2-biotin
T1 sequence: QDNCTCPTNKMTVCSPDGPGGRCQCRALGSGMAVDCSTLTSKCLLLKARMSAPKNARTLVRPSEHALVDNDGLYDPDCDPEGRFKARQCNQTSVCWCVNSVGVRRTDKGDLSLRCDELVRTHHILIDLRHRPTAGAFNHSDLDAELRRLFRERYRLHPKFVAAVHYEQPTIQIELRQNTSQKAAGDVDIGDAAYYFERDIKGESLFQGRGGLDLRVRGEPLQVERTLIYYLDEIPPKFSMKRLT
Briefly: ELISA on immobilized TROP2. A general note: ELISA stands for enzyme-linked immunosorbent assay.

Assay [2] addresses T1, Human TROP2 ECD (31-274 AA), …. Briefly: ELISA on immobilized TROP2. The source holds these as a separate data set.
Assay [3] has the same target. Briefly: ELISA on immobilized TROP2. This is another data set of the same source.
For the next assay, the target named is T2, Human TROP2 Full length (human, UniProt P09758 31-323).
T2 sequence: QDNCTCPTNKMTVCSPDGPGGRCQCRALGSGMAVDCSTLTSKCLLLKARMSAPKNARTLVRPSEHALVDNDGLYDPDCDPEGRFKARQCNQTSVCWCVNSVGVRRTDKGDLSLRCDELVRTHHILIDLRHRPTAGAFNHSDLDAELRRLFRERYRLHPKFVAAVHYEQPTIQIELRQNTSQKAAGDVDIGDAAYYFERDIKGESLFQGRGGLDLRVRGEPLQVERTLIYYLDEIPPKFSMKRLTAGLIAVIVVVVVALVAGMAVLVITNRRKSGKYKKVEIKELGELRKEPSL
As to the kind of experiment: cell-based or functional assay.

For another assay, the target named is T3, Cyno TROP2 Full length (cynomolgus monkey, UniProt P09758 31-323 (human entry)).
T3 chain: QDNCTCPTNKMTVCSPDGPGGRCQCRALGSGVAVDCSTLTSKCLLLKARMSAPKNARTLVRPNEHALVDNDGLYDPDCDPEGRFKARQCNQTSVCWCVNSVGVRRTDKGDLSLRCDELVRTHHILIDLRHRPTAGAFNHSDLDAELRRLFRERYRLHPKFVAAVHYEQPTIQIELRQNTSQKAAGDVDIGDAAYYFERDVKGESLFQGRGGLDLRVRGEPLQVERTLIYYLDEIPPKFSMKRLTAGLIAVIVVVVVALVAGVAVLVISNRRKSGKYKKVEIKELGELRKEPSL
As to the kind of experiment: cell-based or functional assay.

The target of assay [4] is T1, Human TROP2 ECD (31-274 AA), …. As to the kind of experiment: ELISA on immobilized TROP2. The source holds these as a separate data set.
Assay [5] shares this target. As to the kind of experiment: ELISA on immobilized TROP2. This is another data set of the same source.
Another assay addresses T4, Peptide-68 (cysteine pairing not given here; also: biotinylated, site not given here).
T4 construct: mask peptide for the CD3 scFv
T4 peptide: DWCWYSPDNDGLCD
As to the kind of experiment: ELISA, TCE on captured biotin-peptide.

For a further assay, the target named is T5, Peptide-69 (cysteine pairing not given here; also: biotinylated, site not given here).
T5 construct: mask peptide for the CD3 scFv
T5 peptide: SECLVDLQSDPCYW
As to the kind of experiment: ELISA, TCE on captured biotin-peptide.

A further assay has as its target T6, Peptide-70 (cysteine pairing not given here; also: biotinylated, site not given here).
T6 construct: mask peptide for the CD3 scFv
T6 peptide: YLCGPDGDETLACY
Briefly: ELISA, TCE on captured biotin-peptide.

The target of another assay is T7, Peptide-71 (cysteine pairing not given here; also: biotinylated, site not given here).
T7 construct: mask peptide for the CD3 scFv
T7 peptide: VDCGPDGDESILCY
As to the kind of experiment: ELISA, TCE on captured biotin-peptide.

Assay [6] has as its target T1, Human TROP2 ECD (31-274 AA), …. As to the kind of experiment: ELISA on immobilized TROP2. This is another data set of the same source.
Assay [7] shares this target. Briefly: ELISA on immobilized TROP2. The source holds these as a separate data set.

B1: PC-17 (bispecific antibody)
light: not shown
heavy: GGIDFCAIYQWPVCRSGGGGSGGLSGRSDAGSPLGLAGSGGSQVQLQQSGSELKKPGASVKVSCKASGYTFTNYGMNWVKQAPGQGLKWMGWINTYTGEPTYTDDFKGRFAFSLDTSVSTAYLQISSLKADDTAVYFCARGGFGSSYWYFAVWGQGSLVTVSSASTKGPSVFPLAPSSKSTSGGTAALGCLVKDYFPEPVTVSWNSGALTSGVHTFPAVLQSSGLYSLSSVVTVPSSSLGTQTYICNVNHKPSNTKVDKKVEPKSC
notes: anti-TROP2 D109A
In turn, B1 had an EC50 in assay [1] of 926 nM.

B2: PC-27 (bispecific antibody)
light: not shown
heavy: GGVDFCAIYSWPICKIGGGGSGGLSGRSDAGSPLGLAGSGGSQVQLQQSGSELKKPGASVKVSCKASGYTFTNYGMNWVKQAPGQGLKWMGWINTYTGEPTYTDDFKGRFAFSLDTSVSTAYLQISSLKADDTAVYFCARGGFGSSYWYFAVWGQGSLVTVSSASTKGPSVFPLAPSSKSTSGGTAALGCLVKDYFPEPVTVSWNSGALTSGVHTFPAVLQSSGLYSLSSVVTVPSSSLGTQTYICNVNHKPSNTKVDKKVEPKSC
notes: anti-TROP2 D109A
In assay [2], B2 gave an EC50 of 214 nM.

B3: PC-21 (bispecific antibody)
light: not shown
heavy: GGVDFCALYHWPICYQGGGGSGGLSGRSDAGSPLGLAGSGGSQVQLQQSGSELKKPGASVKVSCKASGYTFTNYGMNWVKQAPGQGLKWMGWINTYTGEPTYTDDFKGRFAFSLDTSVSTAYLQISSLKADDTAVYFCARGGFGSSYWYFAVWGQGSLVTVSSASTKGPSVFPLAPSSKSTSGGTAALGCLVKDYFPEPVTVSWNSGALTSGVHTFPAVLQSSGLYSLSSVVTVPSSSLGTQTYICNVNHKPSNTKVDKKVEPKSC
notes: anti-TROP2 D109A
Consider B3, for which the EC50 in assay [2] stood at 168 nM.

B4: TCE-5 (bispecific antibody)
light: not shown
heavy: QVQLQQSGSELKKPGASVKVSCKASGYTFTNYGMNWVKQAPGQGLKWMGWINTYTGEPTYTDDFKGRFAFSLDTSVSTAYLQISSLKADDTAVYFCARGGFGSSYWYFAVWGQGSLVTVSSASTKGPSVFPLAPSSKSTSGGTAALGCLVKDYFPEPVTVSWNSGALTSGVHTFPAVLQSSGLYSLSSVVTVPSSSLGTQTYICNVNHKPSNTKVDKKVEPKSC
Consider B4, for which the EC50 in assay [3] was found to be 1.43 nM; in assay [2] it was 0.59 nM; in assay [1], 20.9 nM.

B5: TCE-7 (bispecific antibody)
light: DIQLTQSPSSLSASVGDRVSITCKASQDVSIAVAWYQQKPGKAPKLLIYSASYRYTGVPDRFSGSGSGTDFTLTISSLQPEDFAVYYCQQHYITPLTFGAGTKVEIKRTVAAPSVFIFPPSDEQLKSGTASVVCLLNNFYPREAKVQWKVDNALQSGNSQESVTEQDSKDSTYSLSSTLTLSKADYEKHKVYACEVTHQGLSSPVTKSFNRGEC
heavy: not shown
Consider B5, for which the “HCT116 Cytotoxicity EC50 (pM)” value with Human TROP2 Full length was 113 pM. For the same molecule, the “CyTROP2 HEK293 EC50 (pM)” value with Cyno TROP2 Full length stood at 0.11 pM.

B6: TCE-1 (TROP2 T cell engager, anti-CD3 scFv wt, anti-TROP2 wt) (bispecific antibody)
light: DIQLTQSPSSLSASVGDRVSITCKASQDVSIAVAWYQQKPGKAPKLLIYSASYRYTGVPDRFSGSGSGTDFTLTISSLQPEDFAVYYCQQHYITPLTFGAGTKVEIKRTVAAPSVFIFPPSDEQLKSGTASVVCLLNNFYPREAKVQWKVDNALQSGNSQESVTEQDSKDSTYSLSSTLTLSKADYEKHKVYACEVTHQGLSSPVTKSFNRGEC
heavy: not shown
notes: Anti-CD3 scFv joined to the N-terminus of the anti-TROP2 Fab heavy chain; the heavy entry holds scFv, linker and Fab heavy chain; also called TCE-1 (wt)
As to B6, the EC50 in assay [4] was 0.07 nM; in [1], 1.29 nM; in assay [5], 0.06 nM.

B7: TCE-38 (bispecific antibody)
light: DIQLTQSPSSLSASVGDRVSITCKASQDVSIAVAWYQQKPGKAPKLLIYSASYRYTGVPDRFSGSGSGTDFTLTISSLQPEDFAVYYCQQHYITPLTFGAGTKVEIKRTVAAPSVFIFPPSDEQLKSGTASVVCLLNNFYPREAKVQWKVDNALQSGNSQESVTEQDSKDSTYSLSSTLTLSKADYEKHKVYACEVTHQGLSSPVTKSFNRGEC
heavy: not shown
Take B7: the “HCT116 Cytotoxicity EC50 (pM)” value with Human TROP2 Full length is greater than 3000 pM. In addition, in the assay with Cyno TROP2 Full length, the “CyTROP2 HEK293 EC50 (pM)” value amounted to 3.6 pM.

B8: TCE-34 (anti-CD3 scFv P41S, A49G, N87S, L150F, T151S, G163R, P175A, K181T, T200V, A202D, L208I, G211N, L217I, S218T, V220A, P222A, E223D, A226S, E227D; … (bispecific antibody)
light: DIQLTQSPSSLSASVGDRVSITCKASQDVSIAVAWYQQKPGKAPKLLIYSASYRYTGVPDRFSGSGSGTDFTLTISSLQPEDFAVYYCQQHYITPLTFGAGTKVEIKRTVAAPSVFIFPPSDEQLKSGTASVVCLLNNFYPREAKVQWKVDNALQSGNSQESVTEQDSKDSTYSLSSTLTLSKADYEKHKVYACEVTHQGLSSPVTKSFNRGEC
heavy: EVQLVESGGGLVQPGGSLKLSCAASGFTFNKYAMNWVRQASGKGLEWVGRIRSKYNNYATYYADSVKDRFTISRDDSKNTAYLQMNSLKTEDTAVYYCVRHGNFGNSYISYWAYWGQGTLVTVSSGGGGSGGGGSGGGGSQTVVTQEPSFSVSPGGTVTLTCRSSTGAVTSGNYANWVQQTPGQAPRGLIGGTKFLAPGVPDRFSGSILGNKAALTITGAQADDESDYYCVLWYSNRWVFGGGTKLTVLGGGGSQVQLQQSGSELKKPGASVKVSCKASGYTFTNYGMNWVKQAPGQGLKWMGWINTYTGEPTYTDDFKGRFAFSLDTSVSTAYLQISSLKADDTAVYFCARGGFGSSYWYFDVWGQGSLVTVSSASTKGPSVFPLAPSSKSTSGGTAALGCLVKDYFPEPVTVSWNSGALTSGVHTFPAVLQSSGLYSLSSVVTVPSSSLGTQTYICNVNHKPSNTKVDKKVEPKSC
notes: scFv on the Fab heavy chain
As for B8, the EC50 was determined as 0.41 nM with Peptide-68, 0.31 nM in the assay with Peptide-69, 0.29 nM in the assay with Peptide-70 and 0.32 nM with Peptide-71.

B9: TCE-48 (bispecific antibody)
light: DIQLTQSPSSLSASVGDRVSITCKASQDVSIAVAWYQQKPGKAPKLLIYSASYRYTGVPDRFSGSGSGTDFTLTISSLQPEDFAVYYCQQHYITPLTFGAGTKVEIKRTVAAPSVFIFPPSDEQLKSGTASVVCLLNNFYPREAKVQWKVDNALQSGNSQESVTEQDSKDSTYSLSSTLTLSKADYEKHKVYACEVTHQGLSSPVTKSFNRGEC
heavy: not shown
B9: the “H292 Cytotoxicity EC50 (pM)” value with Human TROP2 Full length was 7.2 pM. The “CyTROP2 HEK293 EC50 (pM)” value with Cyno TROP2 Full length was determined as 0.8 pM.

B10: TCE-8 (anti-CD3 scFv wt; anti-TROP2 D109A) (bispecific antibody)
light: DIQLTQSPSSLSASVGDRVSITCKASQDVSIAVAWYQQKPGKAPKLLIYSASYRYTGVPDRFSGSGSGTDFTLTISSLQPEDFAVYYCQQHYITPLTFGAGTKVEIKRTVAAPSVFIFPPSDEQLKSGTASVVCLLNNFYPREAKVQWKVDNALQSGNSQESVTEQDSKDSTYSLSSTLTLSKADYEKHKVYACEVTHQGLSSPVTKSFNRGEC
heavy: not shown
notes: scFv on the Fab heavy chain
Turning to B10, the values for the EC50 in assay [3], in assay [6] and in assay [7] were 0.57 nM, 0.2 nM and 0.16 nM, respectively.

B11: PC-30 (bispecific antibody)
light: GGVDFCGLYHWPICYQGGGGSGGLSGRSDAGSPLGLAGSGGSDIQLTQSPSSLSASVGDRVSITCKASQDVSIAVAWYQQKPGKAPKLLIYSASYRYTGVPDRFSGSGSGTDFTLTISSLQPEDFAVYYCQQHYITPLTFGAGTKVEIKRTVAAPSVFIFPPSDEQLKSGTASVVCLLNNFYPREAKVQWKVDNALQSGNSQESVTEQDSKDSTYSLSSTLTLSKADYEKHKVYACEVTHQGLSSPVTKSFNRGEC
heavy: not shown
notes: anti-TROP2 D109A
Consider B11, for which the EC50 in assay [7] came out at 151 nM.
